Assay results as given in patent CN113185610A (UNIV NORTHWEST A&F, dated 2021).

Target: T1, 金黄色葡萄球菌肠毒素B (Staphylococcus aureus, UniProt P01552 28-266)
T1 construct: Coated at 500 ng/mL
T1 sequence: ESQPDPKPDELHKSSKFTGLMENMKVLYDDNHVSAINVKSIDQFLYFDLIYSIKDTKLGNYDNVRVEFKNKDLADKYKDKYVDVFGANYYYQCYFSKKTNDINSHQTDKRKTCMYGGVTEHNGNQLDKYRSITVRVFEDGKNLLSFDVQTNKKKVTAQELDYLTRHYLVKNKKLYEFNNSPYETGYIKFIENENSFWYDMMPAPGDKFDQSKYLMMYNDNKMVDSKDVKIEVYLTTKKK
Experiment: ELISA, coated antigen, HRP-conjugated nanobody, OD450

B1: 抗金黄色葡萄球菌肠毒素A纳米抗体Anti-SEA-Nb A150 (VHH)
VHH: ESGGGLVQAGGSLRLSCTTSGFTFDDYAMGWFRQAPGKEREGVSCINWNGANAYYADSVKGRFTISRDNNKNTLYLQMNSLKPEDTALYYCAAGRMPILDDHGYVYWGQGTQVTVS
B1: no binding (tested: 500ng/mL (coated)).
